Assay results taken from publication PMC11257539.

Molecular target: full-length human VARP with a C-terminal 10xHis tag (human) (UniProt Q96NW4)
Assay: BLI

Sequence of full-length human VARP with a C-terminal 10xHis tag (human) (Q96NW4 whole entry): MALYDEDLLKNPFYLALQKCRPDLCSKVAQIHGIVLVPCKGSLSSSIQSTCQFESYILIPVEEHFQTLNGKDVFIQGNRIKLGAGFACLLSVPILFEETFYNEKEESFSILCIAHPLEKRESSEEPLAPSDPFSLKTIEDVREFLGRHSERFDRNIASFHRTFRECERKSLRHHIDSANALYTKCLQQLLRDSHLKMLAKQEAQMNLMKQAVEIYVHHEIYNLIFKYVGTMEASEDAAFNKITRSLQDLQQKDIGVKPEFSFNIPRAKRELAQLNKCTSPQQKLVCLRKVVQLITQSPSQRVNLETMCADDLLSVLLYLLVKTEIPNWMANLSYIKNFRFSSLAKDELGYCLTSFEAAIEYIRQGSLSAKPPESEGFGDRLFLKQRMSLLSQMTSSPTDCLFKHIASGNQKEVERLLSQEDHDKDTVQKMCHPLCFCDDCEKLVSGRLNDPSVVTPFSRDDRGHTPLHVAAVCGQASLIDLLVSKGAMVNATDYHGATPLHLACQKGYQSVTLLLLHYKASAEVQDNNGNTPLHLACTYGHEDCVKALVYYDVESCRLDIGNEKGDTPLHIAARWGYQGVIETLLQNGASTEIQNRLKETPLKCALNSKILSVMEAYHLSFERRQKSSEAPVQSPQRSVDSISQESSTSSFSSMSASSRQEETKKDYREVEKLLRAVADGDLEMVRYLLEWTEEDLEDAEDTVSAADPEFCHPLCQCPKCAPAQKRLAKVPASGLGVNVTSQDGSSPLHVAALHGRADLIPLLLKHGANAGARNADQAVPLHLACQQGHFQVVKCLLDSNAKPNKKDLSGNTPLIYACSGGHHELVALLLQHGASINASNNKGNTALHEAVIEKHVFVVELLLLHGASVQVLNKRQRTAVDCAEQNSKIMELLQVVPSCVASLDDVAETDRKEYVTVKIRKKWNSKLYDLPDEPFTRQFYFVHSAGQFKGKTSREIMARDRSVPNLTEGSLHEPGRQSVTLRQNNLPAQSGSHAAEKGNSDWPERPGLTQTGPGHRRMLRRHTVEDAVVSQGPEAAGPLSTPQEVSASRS

ka1: 5040 M⁻¹ s⁻¹ | ka2: 0.0535 M⁻¹ s⁻¹ | kdis1: 0.000363 s⁻¹ | kdis2: 0.00891 s⁻¹
Substance: Retromer heterotrimer (VPS26/VPS35/VPS29 subunits) (from UniProt O75436;Q96QK1;Q9UBQ0) (complex)
